This assay concerns the target T1, Human PD-L1 (WT) (human, UniProt Q9NZQ7 19-127, limits assumed).
T1 construct: also called human PD-L1 N-terminal IgV domain
The assay can be described thus: affinity measurement, method not stated.

T1 sequence (Q9NZQ7 19-127 limits assumed): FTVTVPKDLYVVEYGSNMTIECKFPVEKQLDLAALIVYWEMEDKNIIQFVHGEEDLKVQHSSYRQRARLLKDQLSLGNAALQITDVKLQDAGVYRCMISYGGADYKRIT

B1: PD-L1 ISVD-9 (VHH)
VHH: QVQLVESGGGLVQPGGSLRLSCAASGKMSSRRCMAWFRQAPGKERERVAKLLTTSGSTYLADSVKGRFTISRDNSKNTVYLQMNSLRAEDTAVYYCAADSFEDPTCTLVTSSGAFQYWGQGTLVTVSS
notes: also called ISVD specific for PD-L1
Take B1: the Kd turned out to be 5.92 nM.

One may read the Kd as the free concentration of one partner at which half of the binding sites on the other are occupied at equilibrium, for simple one-to-one binding. Read a high Kd as weaker binding.

Source of the values: US20240101707A1, “A METHOD OF PREVENTING, ALLEVIATING OR TREATING A TUMOR” (JIANGSU ALPHAMAB BIOPHARMACEUTICALS CO., LTD., priority 2021, published 2024).
